Experimental data reported in IntAct's records for PubMed 17923090.

Biological target: stat1_human STAT1 (UniProt P42224)
Sequence (P42224 whole entry): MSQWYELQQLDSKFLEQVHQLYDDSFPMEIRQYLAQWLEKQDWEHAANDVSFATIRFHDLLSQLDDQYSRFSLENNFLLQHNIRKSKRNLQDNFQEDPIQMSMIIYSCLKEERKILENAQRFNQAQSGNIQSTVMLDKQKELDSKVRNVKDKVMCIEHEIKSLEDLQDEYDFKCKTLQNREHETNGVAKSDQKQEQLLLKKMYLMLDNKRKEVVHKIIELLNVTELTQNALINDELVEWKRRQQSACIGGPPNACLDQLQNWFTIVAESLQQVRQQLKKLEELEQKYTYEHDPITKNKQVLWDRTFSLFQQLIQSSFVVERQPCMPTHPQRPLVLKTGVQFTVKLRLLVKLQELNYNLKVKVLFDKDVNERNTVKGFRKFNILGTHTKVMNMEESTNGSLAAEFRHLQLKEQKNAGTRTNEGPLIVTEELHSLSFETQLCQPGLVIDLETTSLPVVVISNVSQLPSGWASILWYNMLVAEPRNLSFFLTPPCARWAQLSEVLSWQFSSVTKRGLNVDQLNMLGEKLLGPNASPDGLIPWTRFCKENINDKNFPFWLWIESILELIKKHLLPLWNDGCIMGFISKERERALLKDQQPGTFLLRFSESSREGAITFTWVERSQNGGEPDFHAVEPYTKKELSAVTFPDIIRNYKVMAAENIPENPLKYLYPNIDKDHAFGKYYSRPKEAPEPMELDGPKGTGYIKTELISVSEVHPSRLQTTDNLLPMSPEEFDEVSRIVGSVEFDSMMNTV

Q: With “Signal transducer and activator of transcription 2 (Homo sapiens), P52630 K384R” as the substance, how does the “effect of a mutation on the interaction” value read?
A: Its value is “decreasing interaction”.

Q: With “Signal transducer and activator of transcription 2 (Homo sapiens), P52630 K390R” as the substance, how does the “effect of a mutation on the interaction” value read?
A: The value was “increasing interaction”.

Q: How did the “effect of a mutation on the interaction” value turn out when “Signal transducer and activator of transcription 2 (Homo sapiens), P52630 K415R” was run?
A: The value was “increasing interaction”.

Q: How did the “effect of a mutation on the interaction” value turn out when “Signal transducer and activator of transcription 2 (Homo sapiens), P52630 K419R” was run?
A: Its value is “decreasing interaction”.
